This note sets out measurements from paper PMC3830444.

The target in one assay is activated protein C (UniProt P04070).
The target in another assay is γT-thrombin (UniProt P00734).
Assay [1] concerns the target human α-thrombin (human) (UniProt P00734).
Assay [2] has as its target FPR-chloromethyl ketone-thrombin (active site-inhibited α-thrombin) (human) (UniProt P00734). Nature of the assay: ELISA; HCII 1-75 immobilised on microtiter plates; α-thrombin or FPR-ck-thrombin incubated with or without competitor peptides or proteins; bound thrombin detected after washes with a horseradish peroxidase-conjugated sheep anti-human antibody (A490); one-site binding fit, IC50 = competitor concentration that reduces binding by 50%.

Assay [3] has as its target human α-thrombin (human) (UniProt P00734). Described as above.
Assay [4] has the same target. The source holds these as a separate data set.
Assay [5] shares this target. Nature of the assay: ELISA.

Sequence of activated protein C (P04070 whole entry, looked up): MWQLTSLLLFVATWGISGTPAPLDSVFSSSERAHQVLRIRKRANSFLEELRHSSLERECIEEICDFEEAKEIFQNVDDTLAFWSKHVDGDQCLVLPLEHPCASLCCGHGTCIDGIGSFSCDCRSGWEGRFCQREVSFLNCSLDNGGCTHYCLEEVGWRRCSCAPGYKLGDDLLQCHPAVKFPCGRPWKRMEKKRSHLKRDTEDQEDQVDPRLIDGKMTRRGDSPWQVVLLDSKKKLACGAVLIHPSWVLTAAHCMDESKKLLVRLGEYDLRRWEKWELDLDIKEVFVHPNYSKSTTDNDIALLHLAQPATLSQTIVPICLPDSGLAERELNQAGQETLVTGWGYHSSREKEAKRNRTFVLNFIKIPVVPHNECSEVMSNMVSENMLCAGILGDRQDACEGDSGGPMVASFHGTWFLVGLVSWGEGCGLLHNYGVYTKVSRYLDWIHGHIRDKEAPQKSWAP

On to “API M358R (alpha-1 proteinase inhibitor with the substitution of Met358 by Arg) (from UniProt P01009 25-418) (natural protein)”, for which, in the assay with activated protein C, the second order rate constant of inhibition (k2) of APC is 28300 M⁻¹ s⁻¹. In addition, in the assay with γT-thrombin, the second order rate constant of inhibition (k2) of γT-thrombin is 98300 M⁻¹ s⁻¹. This substance displayed a second order rate constant of inhibition (k2) of α-thrombin with human α-thrombin (human) [1] of 367000 M⁻¹ s⁻¹.
In the assay with activated protein C, “HAPI M358R (residues 1-75 of heparin cofactor II fused to API M358R) (from UniProt P01009 25-418)” came in with a second order rate constant of inhibition (k2) of APC of 28300 M⁻¹ s⁻¹. Also, the second order rate constant of inhibition (k2) of γT-thrombin with γT-thrombin amounted to 567000 M⁻¹ s⁻¹. Further, the second order rate constant of inhibition (k2) of α-thrombin with human α-thrombin (human) [1] amounted to 3.1e+06 M⁻¹ s⁻¹.
By IC50 is commonly meant the concentration that inhibits the measured activity by half. For “HAPI RCL5 (HAPI M358R with additional F352A/L353V/E354V/A355I/I356A/I460L substitutions) (from UniProt P01009 25-418)”, the IC50 in assay [2] stood at 17 µM.
For “HCII 1-75 (recombinant protein of 84 amino acids: residues 1-75 of heparin cofactor II with an N-terminal nonapeptide tag) (domain or fragment)”, the half-maximal inhibitory concentration (IC50) in assay [2] worked out at 9 µM; with human α-thrombin (human) [3] it was 8 µM. The substance also came in with a concentration required to double the Thrombin Clotting Time (TCT) of diluted citrated human plasma in the assay with human α-thrombin (human) [4] of 12 µM.
As to “HV3API M358R (HV3 residues 54-66 fused through G6 to the N-terminus of API M358R) (from UniProt P01009 25-418)”, the second order rate constant of inhibition (k2) of APC with activated protein C was found to be 31700 M⁻¹ s⁻¹.
With HV3_(54-66) synthetic peptide, the IC50 in the assay with human α-thrombin (human) [5] was 0.9 µM. The concentration required to double the Thrombin Clotting Time (TCT) of diluted citrated human plasma with human α-thrombin (human) [4] amounted to 0.45 µM.
